Measured values taken from article PMC7168936.

Substrate: N[C@@H](COP(=O)(O)O)C(=O)O
Experiment: purified protein, by the assay type
Settings: other: substrates of PSAT1, optimized conditions; pH 8.5

B1: PSAT1 (Homo sapiens) (protein)
chain: MDAPRQVVNFGPGPAKLPHSVLLEIQKELLDYKGVGISVLEMSHRSSDFAKIINNTENLVRELLAVPDNYKVIFLQGGGCGQFSAVPLNLIGLKAGRCADYVVTGAWSAKAAEEAKKFGTINIVHPKLGSYTKIPDPSTWNLNPDASYVYYCANETVHGVEFDFIPDVKGAVLVCDMSSNFLSKPVDVSKFGVIFAGAQKNVGSAGVTVVIVRDDLLGFALRECPSVLEYKVQAGNSSLYNTPPCFSIYVMGLVLEWIKNNGGAAAMEKLSSIKSQTIYEIIDNSQGFYVCPVEPQNRSKMNIPFRIGNAKGDDALEKRFLDKALELNMLSLKGHRSVGGIRASLYNAVTIEDVQKLAAFMKKFLEMHQL
  Km: 25.1 ± 5.3 μM μM
